Reference: paper PMC10660547 (Antibodies, 2023)

Experiments:
[1] = biological target: T1, Phl p 7 (with a C-terminal tryptophan residue, biotinylated) (Phleum pratense (timothy grass), UniProt O82040, biotin (EZ-Link Maleimide-PEG2-Biotin)); experiment: SPR; biotinylated Phl p 7 immobilised on an SA chip, 50 nM HAPPID1 Fab captured by it, aδNb072 flowed over (200 nM to 3 nM); 25 °C, 10 mM HEPES pH 7.4, 150 mM NaCl, 0.05% P20, 5 mM CaCl2; conditions: both partners purified
T1 construct: Phl p 7, polcalcin family 2-EF hand protein of timothy grass (Phleum pratense) pollen; C-terminal tryptophan residue added to aid spectrophotometric detection; also called biotinylated Phl p 7; timothy grass pollen allergen Phl p 7; source: E. coli BL21(DE3), purified (HisTrap FF Crude, SEC Superdex 75)

[2] = biological target: anti-IgD nanobody 072 (not stated (a llama and an alpaca were immunised)); experiment: SPR; aδNb072 (100 nM) captured by an anti-His-tag antibody on a CM5 chip; Fab flowed over, two-fold dilution series 200 nM to 3 nM; Biacore T200, 25 °C, 10 mM HEPES pH 7.4, 150 mM NaCl, 0.05% P20; KD from koff/kon
anti-IgD nanobody 072 (not stated (a llama and an alpaca were immunised)), sequence (heavy, as listed by the source): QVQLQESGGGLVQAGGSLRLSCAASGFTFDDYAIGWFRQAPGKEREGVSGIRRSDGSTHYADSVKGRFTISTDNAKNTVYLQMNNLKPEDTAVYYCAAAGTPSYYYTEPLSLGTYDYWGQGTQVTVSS

T1 sequence (O82040 whole entry, looked up): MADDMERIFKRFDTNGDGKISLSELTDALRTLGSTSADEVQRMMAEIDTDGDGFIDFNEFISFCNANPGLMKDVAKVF

binding result [1] | Kd [2] [nM] | koff [2] [s⁻¹] | kon [2] [M⁻¹ s⁻¹] | Binder
binds | 1.4 | 0.000822 | 586000 | HAPPID1 Fab with a C-terminal glycine4-serine linker and SpyTag on the heavy chain (Fab, V domains shown, as the heavy chain of m2 (VH of clone 102.1F10 with human Cδ1); as the light chain of m2 (lambda light chain of the HAPPI1 antibodies); Derived from pVITRO1-HAPPID1; also called SpyTagged HAPPID1 Fab; not shown: glycine4-serine linker and SpyTag, C-terminal, kept) VH: QVQLVQSGAEVRNPGASVKVSCKASGYTFTSYAIHWVRQAPGHRLEWVGRINTDNGNTKYSQKFHGRVALSRDTSASTTYMDLSSLNSEDTAVYYCARAFYYSSGVMFDSWGQGALVTVSS VL: QSALTQPPSVSGAPGQRVSISCTGGSSNFGAGYDVHWYQQLPATAPKLLIYGNNNRPSGVPDRFSGSKSGTSASLAITGLQAEDEGDYFCQSFDTSLSGWIFGGGTKLTVL
 | 3.64 | 0.000829 | 228000 | HAPPIE1 Fab (SpyTagged) (Fab, V domains shown) VH: QVQLVQSGAEVRNPGASVKVSCKASGYTFTSYAIHWVRQAPGHRLEWVGRINTDNGNTKYSQKFHGRVALSRDTSASTTYMDLSSLNSEDTAVYYCARAFYYSSGVMFDSWGQGALVTVSS VL: QSALTQPPSVSGAPGQRVSISCTGGSSNFGAGYDVHWYQQLPATAPKLLIYGNNNRPSGVPDRFSGSKSGTSASLAITGLQAEDEGDYFCQSFDTSLSGWIFGGGTKLTVL
